Data on four molecules can be found in PMC9643514, “Regulation of BRCA1 stability through the tandem UBX domains of isoleucyl-tRNA synthetase 1” (Nature Communications, 2022).

Test [1] deals with T1, His-IARS1, full-length human IARS1 (residues 1−1262) (human, UniProt P41252 1-1262).
T1 construct: pFASTbacHTb vector; also called purified IARS1; full-length IARS1; source: Sf9, purified (Ni2+ column, IEX, SEC); not shown: His6, N-terminal, kept
T1 sequence (looked up): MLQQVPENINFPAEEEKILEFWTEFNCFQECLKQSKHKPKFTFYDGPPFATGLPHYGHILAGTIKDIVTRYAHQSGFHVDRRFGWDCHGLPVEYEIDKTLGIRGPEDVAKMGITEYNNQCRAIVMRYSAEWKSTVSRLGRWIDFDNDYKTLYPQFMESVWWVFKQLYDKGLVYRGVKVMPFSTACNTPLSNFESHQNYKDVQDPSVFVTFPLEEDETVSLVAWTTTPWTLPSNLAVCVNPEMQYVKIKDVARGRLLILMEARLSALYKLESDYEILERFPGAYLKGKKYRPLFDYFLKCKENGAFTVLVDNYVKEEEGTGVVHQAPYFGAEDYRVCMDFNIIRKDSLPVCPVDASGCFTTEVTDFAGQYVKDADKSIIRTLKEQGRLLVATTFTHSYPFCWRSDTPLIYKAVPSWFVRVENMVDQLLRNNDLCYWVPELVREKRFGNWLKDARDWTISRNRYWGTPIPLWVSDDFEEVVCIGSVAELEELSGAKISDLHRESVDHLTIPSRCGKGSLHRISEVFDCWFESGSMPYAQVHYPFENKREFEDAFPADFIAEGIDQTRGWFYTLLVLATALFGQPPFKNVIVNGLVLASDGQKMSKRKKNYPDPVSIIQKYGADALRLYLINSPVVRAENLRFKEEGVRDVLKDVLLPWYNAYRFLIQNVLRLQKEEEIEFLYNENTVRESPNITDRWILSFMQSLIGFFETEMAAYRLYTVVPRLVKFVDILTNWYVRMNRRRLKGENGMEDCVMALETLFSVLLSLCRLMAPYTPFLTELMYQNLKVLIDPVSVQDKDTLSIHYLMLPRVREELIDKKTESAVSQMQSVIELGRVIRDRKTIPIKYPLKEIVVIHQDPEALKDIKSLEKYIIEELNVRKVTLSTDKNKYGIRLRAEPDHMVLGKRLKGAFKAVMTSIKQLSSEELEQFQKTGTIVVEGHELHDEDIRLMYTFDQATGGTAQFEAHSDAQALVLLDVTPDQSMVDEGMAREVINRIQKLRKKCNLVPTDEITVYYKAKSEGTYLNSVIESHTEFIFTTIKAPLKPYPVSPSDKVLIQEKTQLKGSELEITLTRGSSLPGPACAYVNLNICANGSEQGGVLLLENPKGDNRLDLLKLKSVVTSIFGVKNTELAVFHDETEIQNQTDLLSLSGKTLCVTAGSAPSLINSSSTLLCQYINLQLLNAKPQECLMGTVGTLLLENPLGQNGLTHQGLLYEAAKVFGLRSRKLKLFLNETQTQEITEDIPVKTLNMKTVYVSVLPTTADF
The test can be described thus: pull-down; in vitro pull-down of IARS1 with fragments of the BRCA1-BARD1 complex. As to conditions: both partners purified.

The target in test [2] is T1, His-IARS1, full-length human IARS1 …. The test can be described thus: pull-down; human His-IARS1 or IARS1ΔUBX2 mixed with human GST-EARS1 at 1:1.5, 30 min at 4 °C, Ni-sepharose beads 2 hr at 4 °C, eluted with 250 mM imidazole in His A buffer (20 mM Tris-HCl pH 7.4, 300 mM NaCl, 7 mM 2-mercaptoethanol, 5% glycerol), SDS-PAGE and Coomassie. Conditions: both partners purified.

B1: BRCT domain (residues 1645–1863) of BRCA1 (domain or fragment, UniProt P38398 1645-1863, looked up)
chain: RVNKRMSMVVSGLTPEEFMLVYKFARKHHITLTNLITEETTHVVMKTDAEFVCERTLKYFLGIAGGKWVVSYFWVTQSIKERKMLNEHDFEVRGDVVNGRNHQGPKRARESQDRKIFRGLEICCYGPFTNMPTDQLEWMVQLCGASVVKELSSFTLGTGVHPIVVVQPDAWTEDNGFHAIGQMCEAPVVTREWVLDSVALYQCQELDTYLIPQIPHSHY
notes: BRCA1 BRCT domain, residues 1645-1863; also called BRCA1 BRCT
As to B1, the binding result in test [1] is “binds”.

B2: GST-EARS1 without the WHEP motifs (human EPRS1 residues 1−706) (domain or fragment, UniProt P07814 1-706, looked up)
chain: MATLSLTVNSGDPPLGALLAVEHVKDDVSISVEEGKENILHVSENVIFTDVNSILRYLARVATTAGLYGSNLMEHTEIDHWLEFSATKLSSCDSFTSTINELNHCLSLRTYLVGNSLSLADLCVWATLKGNAAWQEQLKQKKAPVHVKRWFGFLEAQQAFQSVGTKWDVSTTKARVAPEKKQDVGKFVELPGAEMGKVTVRFPPEASGYLHIGHAKAALLNQHYQVNFKGKLIMRFDDTNPEKEKEDFEKVILEDVAMLHIKPDQFTYTSDHFETIMKYAEKLIQEGKAYVDDTPAEQMKAEREQRIDSKHRKNPIEKNLQMWEEMKKGSQFGQSCCLRAKIDMSSNNGCMRDPTLYRCKIQPHPRTGNKYNVYPTYDFACPIVDSIEGVTHALRTTEYHDRDEQFYWIIEALGIRKPYIWEYSRLNLNNTVLSKRKLTWFVNEGLVDGWDDPRFPTVRGVLRRGMTVEGLKQFIAAQGSSRSVVNMEWDKIWAFNKKVIDPVAPRYVALLKKEVIPVNVPEAQEEMKEVAKHPKNPEVGLKPVWYSPKVFIEGADAETFSEGEMVTFINWGNLNITKIHKNADGKIISLDAKLNLENKDYKKTTKVTWLAETTHALPIPVICVTYEHLITKPVLGKDEDFKQYVNKNSKHEELMLGDPCLKDLKKGDIIQLQRRGFFICDQPYEPVSPYSCKEAPCVLIYIPDGH
notes: human EPRS1, EARS1 part without the three WHEP motifs, residues 1-706; pGEX4T3 vector; source: E. coli Rosetta (DE3), purified (GST column, gel filtration)
Take B2: in test [2], the binding result is recorded as “binds”.

B3: heterodimeric RING (BRCA1 residues 1–304)-RING (BARD1 residues 26–142) domains of the BRCA1-BARD1 complex (complex)
chain 1: MDLSALRVEEVQNVINAMQKILECPICLELIKEPVSTKCDHIFCKFCMLKLLNQKKGPSQCPLCKNDITKRSLQESTRFSQLVEELLKIICAFQLDTGLEYANSYNFAKKENNSPEHLKDEVSIIQSMGYRNRAKRLLQSEPENPSLQETSLSVQLSNLGTVRTLRTKQRIQPQKTSVYIELGSDSSEDTVNKATYCSVGDQELLQITPQGTRDEISLDSAKKAACEFSETDVTNTEHHQPSNNDLNTTEKRAAERHPEKYQGSSVSNLHVEPCGTNTHASSLQHENSSLLLTKDRMNVEKAEF
chain 2: MEPDGRGAWAHSRAALDRLEKLLRCSRCTNILREPVCLGGCEHIFCSNCVSDCIGTGCPVCYTPAWIQDLKINRQLDSMIQLCSKLRNLLHDNELSDLKEDKPRKSLFNDAGNKKNS
notes: also called RING-RING domains; source: expressed and purified as the BRCA1-BARD1 complex
B3: the binding result in test [1] was “binds”.

B4: GST-EARS1 with three WHEP motifs (human EPRS1 residues 1–1015) (domain or fragment, UniProt P07814 1-1015, looked up)
chain: MATLSLTVNSGDPPLGALLAVEHVKDDVSISVEEGKENILHVSENVIFTDVNSILRYLARVATTAGLYGSNLMEHTEIDHWLEFSATKLSSCDSFTSTINELNHCLSLRTYLVGNSLSLADLCVWATLKGNAAWQEQLKQKKAPVHVKRWFGFLEAQQAFQSVGTKWDVSTTKARVAPEKKQDVGKFVELPGAEMGKVTVRFPPEASGYLHIGHAKAALLNQHYQVNFKGKLIMRFDDTNPEKEKEDFEKVILEDVAMLHIKPDQFTYTSDHFETIMKYAEKLIQEGKAYVDDTPAEQMKAEREQRIDSKHRKNPIEKNLQMWEEMKKGSQFGQSCCLRAKIDMSSNNGCMRDPTLYRCKIQPHPRTGNKYNVYPTYDFACPIVDSIEGVTHALRTTEYHDRDEQFYWIIEALGIRKPYIWEYSRLNLNNTVLSKRKLTWFVNEGLVDGWDDPRFPTVRGVLRRGMTVEGLKQFIAAQGSSRSVVNMEWDKIWAFNKKVIDPVAPRYVALLKKEVIPVNVPEAQEEMKEVAKHPKNPEVGLKPVWYSPKVFIEGADAETFSEGEMVTFINWGNLNITKIHKNADGKIISLDAKLNLENKDYKKTTKVTWLAETTHALPIPVICVTYEHLITKPVLGKDEDFKQYVNKNSKHEELMLGDPCLKDLKKGDIIQLQRRGFFICDQPYEPVSPYSCKEAPCVLIYIPDGHTKEMPTSGSKEKTKVEATKNETSAPFKERPTPSLNNNCTTSEDSLVLYNRVAVQGDVVRELKAKKAPKEDVDAAVKQLLSLKAEYKEKTGQEYKPGNPPAEIGQNISSNSSASILESKSLYDEVAAQGEVVRKLKAEKSPKAKINEAVECLLSLKAQYKEKTGKEYIPGQPPLSQSSDSSPTRNSEPAGLETPEAKVLFDKVASQGEVVRKLKTEKAPKDQVDIAVQELLQLKAQYKSLIGVEYKPVSATGAEDKDKKKKEKENKSEKQNKPQKQNDGQRKDPSKNQGGGLSSSGAGEGQGPKKQTRLG
notes: pGEX4T3 vector; source: E. coli Rosetta (DE3), purified (GST column, gel filtration)
With B4, in test [2], the binding result is “binds”.
